Experiments:
β-gal enzyme = β-gal enzyme (Escherichia coli, UniProt P00722); settings: ~12 uM peptide
Method: (§1) Beta-galactosidase (β-gal) (˜3 nM, Alexa647 labeled, the target) was preincubated with a solution containing ˜12 uM of the peptide “[…]” (the ligand). […] The complex between β-gal and the peptide complex was incubated with a […] 10,000 random sequence peptides (the “test molecules”) bound to the surface of a glass slide in an ordered fashion. The incubation took place for two hours and the binding pattern of this was compared to the binding pattern using only the labeled enzyme and no ligand.

[1] = biological target: Beta-galactosidase (β-gal) (Escherichia coli, UniProt P00722); settings: ~12 uM peptide, ~3 nM β-gal
Method: as §1

[2] = isoelectric point (pI) of peptides; format: physicochemical

β-gal enzyme, sequence (P00722 2-1024): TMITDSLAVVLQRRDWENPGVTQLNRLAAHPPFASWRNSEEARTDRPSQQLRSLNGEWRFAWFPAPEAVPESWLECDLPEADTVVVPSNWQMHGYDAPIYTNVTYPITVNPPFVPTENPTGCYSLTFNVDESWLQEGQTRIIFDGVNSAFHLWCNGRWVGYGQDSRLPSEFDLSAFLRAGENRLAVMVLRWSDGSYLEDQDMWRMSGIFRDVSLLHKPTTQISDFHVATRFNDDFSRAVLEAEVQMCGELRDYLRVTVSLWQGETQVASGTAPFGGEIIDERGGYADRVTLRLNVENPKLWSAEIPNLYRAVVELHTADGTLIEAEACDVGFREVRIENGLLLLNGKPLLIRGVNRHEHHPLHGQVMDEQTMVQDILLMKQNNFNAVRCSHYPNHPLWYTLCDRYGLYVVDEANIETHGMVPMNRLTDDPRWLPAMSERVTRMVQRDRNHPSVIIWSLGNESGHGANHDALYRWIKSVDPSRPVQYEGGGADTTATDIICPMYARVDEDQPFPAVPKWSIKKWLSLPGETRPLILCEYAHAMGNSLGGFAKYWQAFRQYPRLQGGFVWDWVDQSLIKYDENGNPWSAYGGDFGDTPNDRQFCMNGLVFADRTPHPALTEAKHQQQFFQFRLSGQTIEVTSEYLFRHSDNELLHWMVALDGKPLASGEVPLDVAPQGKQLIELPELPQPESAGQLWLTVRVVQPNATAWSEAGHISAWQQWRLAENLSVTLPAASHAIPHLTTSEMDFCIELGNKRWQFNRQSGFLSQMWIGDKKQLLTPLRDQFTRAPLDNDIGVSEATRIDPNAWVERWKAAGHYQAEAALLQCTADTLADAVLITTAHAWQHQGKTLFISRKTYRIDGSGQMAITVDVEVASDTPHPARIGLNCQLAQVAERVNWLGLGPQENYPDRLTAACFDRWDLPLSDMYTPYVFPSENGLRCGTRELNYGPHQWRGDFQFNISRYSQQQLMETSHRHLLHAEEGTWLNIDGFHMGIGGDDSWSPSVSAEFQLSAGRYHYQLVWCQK
Beta-galactosidase (β-gal), sequence (P00722 2-1024): as above

RVFKRYKRWLHVSRYYFGSC
binding to the β-gal enzyme (β-gal enzyme): binds strongly
β-gal activity inhibited [1]: 95%
isoelectric point (pI) [2]: 10.6
